Laboratory results: patent publication US20220275390A1, “RUBISCO-BINDING PROTEIN MOTIFS AND USES THEREOF” (The Trustees of Princeton University, priority 2019, published 2022)

Assays:
C. reinhardtii cells = assay: Confocal fluorescence microscopy localization of Venus fusion proteins; format: cell-based, Chlamydomonas reinhardtii; details: Venus fluorescence in C. reinhardtii cells
Excerpt: A synthetic […] (Invitrogen) containing a 643 bp restriction fragment containing the C-terminus of Venus, followed by the sequence coding for the FLAG-tag sequence, and a sequence coding for three repetitions of the 15 C-terminal amino acids of SAGA2, was cloned into pLM005-FDX1, after restriction digestion with EcoRl and PfIMI. GenBank accession number of the empty pLM005 is KX077945.1. The plasmid pLM005-FDX1 is identical to pLM005 with the genomic sequence of FDX1 cloned in frame by Gibson Assembly (Mackinder et al., PNAS 113: 5958-5963, 2015) between residues 2698 and 3234. The terminal 85 amino acids of resultant mature fusion protein, immediately downstream of the FLAG-tag, were a 5 aa linker (GGGGS; SEQ ID NO: 87), a first copy of SAGA2 15 C-terminal aa, followed by a 10 aa linker (2X GGGGS; SEQ ID NO: 88), a second copy of SAGA2 15 last aa, another 10 aa linker (2X GGGGS; SEQ ID NO: 88), and finally a third copy of SAGA2 15 last aa. The sequence of the EcoRI-PfIMI digestion fragment (SEQ ID NO: 89) was cloned in frame into pLM005-FDX1.
Culturing and Transformation of C. reinhardtii: Culturing and transformation of C. reinhardtii for fluorescence localization of protein and imaging was performed as described in Mackinder et al. (PNAS 113: 5958-5963, 2015). […]

EPYC1 = assay: Yeast two-hybrid assay of EPYC1 with Rubisco SSU variants; format: cell-based, Chlamydomonas reinhardtii; details: growth on SD-L-W-H with 3-AT, three days, FIGS. 9A-9C
Excerpt: FIGS. 9A-9C show the results of a yeast two-hybrid (Y2H) assay to measure the interaction between EPYC1 and Rubisco SSU variants. […] The images shown were taken following three days of cell growth. The Rubisco SSU residues that form salt bridges with EPYC1 residues are bolded (D23, E24, and R91) and the residues that form the hydrophobic pocket with EPYC1 residues are bolded and italicized (M87 and V94). The “Control” images were taken from cells grown for three days on SD-L-W media and the “Test” images were taken from cells grown for three days on SD-L-W-H with 3-AT. Growth of yeast cells expressing the indicated EPYC1 and Rubisco SSU variants was measured after three days on SD-L-W-H with varying 3-AT concentrations. The highest concentration of 3-AT (0, 1, 2.5, 5, 10, and 20 mM) permissive for the growth of each EPYC1 and Rubisco SSU variant combination is shown, as indicated in the “Key” on the right.
Mutagenesis of EPYC1, Mutagenesis of Rubisco, Yeast Two-hybrid, Peptide Arrays and SPR Assays To determine the importance of individual EPYC1 residues for binding to Rubisco, the impact on Rubisco binding of every possible single amino acid substitution for EPYC1 RBM 2 was determined (FIG. 8). To determine the importance of individual Rubisco residues for binding to EPYC1, targeted mutations of the amino acids identified from atomic modeling were tested in a yeast two-hybrid assay as in van Nues and Beggs (Genetics 157: 1451-1467, 2000). Peptide arrays and SPR assays were performed as in Example 1.

Row | Molecule | localization pattern within the pyrenoid (C. reinhardtii cells; FIG. 15) | localization (C. reinhardtii cells; FIGS. 14B and 15) | Rubisco SSU-EPYC1 interaction (EPYC1)
1 | RBM P1-Venus: Rubisco-Binding Membrane Protein 1 (SEQ ID NO: 1) fused to the Venus fluorescent protein (protein) MQCQLKHGARPQSQRPNWLPARAATLRPAVQHGVRRGLTLGVKAAAAPLEDKKMPADMTTRQYRRVVYDFALWAKHRDVNRYLYNLRTIPGSRIIRQLSQPMGVVLAWAALFGFYETCLEAGVLPSYLPKMTLMSAEPQGLTSFALSLLLVFRTNSSYGRFDEARKIWGGILNRARNIANQAVTFIPAEDQAGREAVGKWTVGFTRALQAHLQEDIDLRKELEKATPRWSKEEIDMLVNAQHRPIKAISVLSELTRQLSITQFQALQMQENCTFFYDALGGCERLLRTPIPVSYTRHTARFLTIWLAMLPLGLWERYHWSMLPVIALIGFLLLGIDEIGISIEEPFGILPLDAICGRAQTDVNSLLKEDPAVMKYVDDVRSGRVKSPPPLPPAPAAPAAAAAAAAAAARSVSPQPDVAKTLGSLFTNVRAGVGAVAPGAPLMPQAPVRSPSPTRSVSPSFPRASAGTGMPPPVGMNGATPRVAAAPPTPPPVSRPAAPAAAPAAGSGFTMPNFSASLSGLTGGAAAAAKSAADAASSKLTKMADSMSSGAAAPAPPAAPARPSTSPRPSASSPISSSADADRSDSSRRPVNWRDELQSLKATREPNGNGNGSGVAPAAGRADADEEALRRFGNLAGRSRSGNGGGGSSDTELSEANRPRTRPDWRNQL | limited to an inner sphere of the Rubisco matrix | localized to the pyrenoid | 
2 | D23A: C. reinhardtii Rubisco SSU with mutation D23A (protein, left off: small tags and cut ends) MMVWTPVNNKMFETFSYLPPLTAEQIAAQVDYIVANGWIPCLEFAEADKAYVSNESAIRFGSVSCLYYDNRYWTMWKLPMFGCRDPMQVLREIVACTKAFPDAYVRLVAFDNQKQVQIMGFLVQRPKTARDFQPANKRSV |  |  | severe impact
3 | R91A: C. reinhardtii Rubisco SSU with mutation R91A (protein, UniProt P00873 46-185, looked up, variant R91A) Ribulose bisphosphate …: MMVWTPVNNKMFETFSYLPPLTDEQIAAQVDYIVANGWIPCLEFAEADKAYVSNESAIRFGSVSCLYYDNRYWTMWKLPMFGCRDPMQVLAEIVACTKAFPDAYVRLVAFDNQKQVQIMGFLVQRPKTARDFQPANKRSV |  |  | moderate defect
4 | V94D: C. reinhardtii Rubisco SSU with mutation V94D (protein, UniProt P00873 46-185, looked up, variant V94D) Ribulose bisphosphate …: MMVWTPVNNKMFETFSYLPPLTDEQIAAQVDYIVANGWIPCLEFAEADKAYVSNESAIRFGSVSCLYYDNRYWTMWKLPMFGCRDPMQVLREIDACTKAFPDAYVRLVAFDNQKQVQIMGFLVQRPKTARDFQPANKRSV |  |  | severe impact
5 | M87D: C. reinhardtii Rubisco SSU with mutation M87D (protein, UniProt P00873 46-185, looked up, variant M87D) Ribulose bisphosphate …: MMVWTPVNNKMFETFSYLPPLTDEQIAAQVDYIVANGWIPCLEFAEADKAYVSNESAIRFGSVSCLYYDNRYWTMWKLPMFGCRDPDQVLREIVACTKAFPDAYVRLVAFDNQKQVQIMGFLVQRPKTARDFQPANKRSV |  |  | severe impact
6 | E24A: C. reinhardtii Rubisco SSU with mutation E24A (protein, UniProt P00873 46-185, looked up, variant E24A) Ribulose bisphosphate …: MMVWTPVNNKMFETFSYLPPLTDAQIAAQVDYIVANGWIPCLEFAEADKAYVSNESAIRFGSVSCLYYDNRYWTMWKLPMFGCRDPMQVLREIVACTKAFPDAYVRLVAFDNQKQVQIMGFLVQRPKTARDFQPANKRSV |  |  | moderate defect
